Residue numbers refer to the chain shown, from its start. Where “and” joins values, the source holds several entries; their conditions need not be identical. Identical values can stand only once.

Assay [1] deals with HEK293T cells. Description: CD40L-ecDHFR constructs, CD40L surface expression in transfected HEK293T cells. Type of assay: cell-based, human. The note with it: for SR (for % CD40L) / TMP/vehicle ratio of CD40L median fluorescence intensity: TMP (50 μM) versus Vehicle. The procedure: HEK293T cells were transiently transfected with the constructs in Table 39 (1 μg of DNA). 24 hours after transfection, the media was removed and replaced with fresh medium containing 50 μM TMP or DMSO. Another 24 hours later cells were analyzed by flow cytometry for CD40L surface expression. Table 39 provides CD40L expression as both % CD40L positive cells and the Median fluorescence intensity (MFI) values.

Assay [2] concerns Jurkat cells. Description: In vivo CD40L regulation in Jurkat cells harvested from bone marrow of NSG mice. Particulars: for CD40L MFI values / Percent CD40L positive cells: Jurkat cells from bone marrow, day 16. The text has this: Jurkat cells stably expressing OT-001661, OT-002034 were intravenously infused into 8-week old NSG mice (20 million cells per mouse). Starting by day 15, mice were orally dosed according to the study design shown in Table 42 and Jurkat cells were harvested on day 16 from the bone marrow and analyzed by FACS. In Tables 41 and 42, TMP refers to Trimethoprim and all dosing is relative to “0 hr” time point on day 16. The results are shown in Table 43 and Table 44 where “EV” refers to empty vector control.

Assay [3] has as its system Jurkat cells. Description: Linker length, ER regulated CD40L, % CD40L positive Jurkat cells. It counts as cell-based. The procedure: Jurkat cells were lentivirally transduced and 24 hours after transduction were treated with DMSO or 1 μM Bazedoxifene for another 24 hours and analyzed by flow cytometry for surface expression of CD40L. […] In Table 33, SR indicates stabilization ratio.

Assay [4] relates to T cells (CD4 and CD8 positive). Description: Bazedoxifene dose response, CD40L MFI in CD4 and CD8 positive T cells (day 4, freeze/thaw, restimulation). Type of assay: cell-based. How it is done:
Dose response with Bazedoxifene in T cells were conducted for OT-001966, OT-001967, OT-001666. Expression of CD40L was measured at (a) day 4 after transduction, (b) after freezing and thawing the cells or (c) after freezing and thawing the cells followed by restimulation with CD3/CD28 beads. The CD40L MFI (median fluorescence intensity) within CD4 and CD8 positive subpopulations is shown in Table 34 and Table 35 respectively.

For assay [5], the system named is Jurkat cells. Description: CD40L shedding ELISA of supernatant, Jurkat cells with or without CD40-Fc receptor. It counts as cell-based. Also noted: CD40L levels in supernatant: unit not given here. Particulars: 6 hours. The procedure: Sheddases e.g. ADAM10/17 present in the tumor microenvironment can cleave CD40L thereby preventing the successful activation of CD40 by CD40L. […] OT-001669 which has a deletion of amino acids 1-13 of CD40L was designed to reduce internalization and OT-001668 which has a deletion of amino acids 110-116 of CD40L was designed to remove the ADAM10/17 sites. Jurkat cells stably expressing the full length construct OT-001661, OT-001669, or OT-001668 were cultured for 6 hours with 1.25 μg/ml recombinant human (h) or mouse (m) CD40-Fc receptor or left untreated and tested using an ELISA assay (Table 15).
Background: An ELISA detects its analyte on a solid surface through an enzyme-linked reagent.

[6] abbreviates: Jurkat cells from bone marrow of mice treated with TMP versus vehicle control or empty vector.
The mark [7] stands for this setting: individual mice, TMP 500 mg/kg 3x oral.

B1: OT-002035: CD40L-ecDHFR construct of Table 39 (protein)
chain: MSGISLIAALAVDRVIGMENAMPWNLPADLAWFKRNTLNKPVIMGRHTWESIGRPLPGRKNIILSSQPGTDDRVTWVKSVDEAIAACGDVPEIMVIGGGRVREQFLPKAQKLYLTHIDAEVEGDTHFPDYEPDDWESVFSEFHDADAQNSHSYCFEILERRHMIETYNQTSPRSAATGLPISMKIFMYLLTVFLITQMIGSALFAVYLHRRLDKIEDERNLHEDFVFMKTIQRCNTGERSLSLLNCEEIKSQFEGFVKDIMLNKEETKKENSFEMQKGDQNPQIAAHVISEASSKTTSVLQWAEKGYYTMSNNLVTLENGKQLTVKRQGLYYIYAQVTFCSNREASSQAPFIASLCLKSPGRFERILLRAANTHSSAKPCGQQSIHLGGVFELQPGASVFVNVTDPSQVSHGTGFTSFGLLKL
As for B1, the “TMP mediated expression of CD40L” value in assay [1] (HEK293T cells, 50 μM TMP or DMSO 24 hours) is on record as “exception”. Further, in assay [1] (TMP (50 μM)), the “% CD40L” value is 23.8% and the “MFI (Median)” value was 8311. Besides, in assay [1], the “SR (for % CD40L)” value is given as 0.89 and the “TMP/vehicle ratio of CD40L median fluorescence intensity” value turned out to be 0.97. In addition, in assay [1] (Vehicle), the “% CD40L” value was determined as 26.7% and the “MFI (Median)” value is recorded as 8535.

B2: OT-002034: TMP regulated CD40L construct stably expressed in Jurkat cells (protein)
chain: B1 chain with R102Q
For the molecule B2, in assay [1] (TMP (50 μM)), the “% CD40L” value was 71.1% and the “MFI (Median)” value worked out at 20569. Moreover, in assay [1], the “SR (for % CD40L)” value came out at 2.44 and the “TMP/vehicle ratio of CD40L median fluorescence intensity” value was found to be 2.59. In assay [1] (Vehicle), the “% CD40L” value turned out to be 29.1% and the “MFI (Median)” value came to 7957. Also, in assay [2] (Average, TMP 500 mg/kg 3x oral), the “CD40L MFI values” is 520.75 and the “Percent CD40L positive cells” value was determined as 53.4%. Moreover, in assay [2] (Average, Vehicle), the “CD40L MFI values” is on record as 93.65 and the “Percent CD40L positive cells” value turned out to be 1.82%. Moreover, in assay [2] (setting [6]), the “% CD40L positive cells” value is reported as “increased” and the “CD40L values (MFI)” value is recorded as “increased”. In addition, in assay [2] (setting [7]), the “CD40L MFI values” is 608 and 542 and 505 and 428; the “Percent CD40L positive cells” value was 61% and 56.3% and 52.2% and 44.1%. Further, in assay [2] (individual mice, Vehicle), the “CD40L MFI values” is 101 and 80.6 and 97.9 and 95.1; the “Percent CD40L positive cells” value was 2.36% and 0.83% and 2.17% and 1.92%.

B3: OT-001967: ER regulated CD40L construct with varied linker length (protein)
chain: MSLALSLTADQMVSALLDAEPPILYSEYDPTRPFSEASMMGLLTNLADRELVHMINWAKRVPGFVDLTLHDQVHLLECAWMEILMIGLVWRSMEHPGKLLFAPNLLLDRDQGKCVEGGVEIFDMLLATSSRFRMMNLQGEEFVCLKSIILLNSGVYTFLSSTLKSLEEKDHIHRVLDKITDTLIHLMAKAGLTLQQQHQRLAQLLLILSHIRHMSNKRMEHLYSMKCKNVVPLSDLLLEMLDAHRLGSMIETYNQTSPRSAATGLPISMKIFMYLLTVFLITQMIGSALFAVYLHRRLDKIEDERNLHEDFVFMKTIQRCNTGERSLSLLNCEEIKSQFEGFVKDIMLNKEETKKENSFEMQKGDQNPQIAAHVISEASSKTTSVLQWAEKGYYTMSNNLVTLENGKQLTVKRQGLYYIYAQVTFCSNREASSQAPFIASLCLKSPGRFERILLRAANTHSSAKPCGQQSIHLGGVFELQPGASVFVNVTDPSQVSHGTGFTSFGLLKL
B3: the “Percent of Jurkat cells expressing CD40L” value in assay [3] (1 μM Bazedoxifene) came out at 30%; in assay [3] (DMSO) it was 2%. Besides, in assay [3] (1 μM Bazedoxifene versus DMSO, % CD40L positive Jurkat cells), the SR turned out to be 15. In addition, the “CD40L expression (MFI)” value in assay [4] (CD4+ cells, Day 5, Bazedoxifene 0.01 nM) is given as 473; in assay [4] (CD4+ cells, Day 5, Bazedoxifene 0.1 nM) it was 474; in assay [4] (CD4+ cells, Day 5, Bazedoxifene 1 nM), 483; in assay [4] (CD4+ cells, Day 5, Bazedoxifene 10 nM) it was 497; in assay [4] (CD4+ cells, Day 5, Bazedoxifene 100 nM) it was 630; in assay [4] (CD4+ cells, Day 5, Bazedoxifene 1000 nM), 998. Further, the “CD40L expression (MFI)” value in assay [4] (CD4+ cells, Day 5, Bazedoxifene 10000 nM) is recorded as 1000; in assay [4] (CD4+ cells, Post Thaw, Bazedoxifene 0.01 nM) it was 156; in assay [4] (CD4+ cells, Post Thaw, Bazedoxifene 0.1 nM), 160; in assay [4] (CD4+ cells, Post Thaw, Bazedoxifene 1 nM), 161; in assay [4] (CD4+ cells, Post Thaw, Bazedoxifene 10 nM) it was 172; in assay [4] (CD4+ cells, Post Thaw, Bazedoxifene 100 nM), 200. Further, the “CD40L expression (MFI)” value in assay [4] (CD4+ cells, Post Thaw, Bazedoxifene 1000 nM) is listed as 223; in assay [4] (CD4+ cells, Post Thaw, Bazedoxifene 10000 nM), 457; in assay [4] (CD4+ cells, Restim, Bazedoxifene 0.01 nM), 913; in assay [4] (CD4+ cells, Restim, Bazedoxifene 0.1 nM) it was 922; in assay [4] (CD4+ cells, Restim, Bazedoxifene 1 nM), 913; in assay [4] (CD4+ cells, Restim, Bazedoxifene 10 nM), 1131. Besides, the “CD40L expression (MFI)” value in assay [4] (CD4+ cells, Restim, Bazedoxifene 100 nM) is listed as 1549; in assay [4] (CD4+ cells, Restim, Bazedoxifene 1000 nM), 1232; in assay [4] (CD4+ cells, Restim, Bazedoxifene 10000 nM), 291; in assay [4] (CD8+ cells, Day 5, Bazedoxifene 0.01 nM), 153; in assay [4] (CD8+ cells, Day 5, Bazedoxifene 0.1 nM) it was 153; in assay [4] (CD8+ cells, Day 5, Bazedoxifene 1 nM), 157. The “CD40L expression (MFI)” value in assay [4] (CD8+ cells, Day 5, Bazedoxifene 10 nM) was 158; in assay [4] (CD8+ cells, Day 5, Bazedoxifene 100 nM), 226; in assay [4] (CD8+ cells, Day 5, Bazedoxifene 1000 nM), 424; in assay [4] (CD8+ cells, Day 5, Bazedoxifene 10000 nM), 392; in assay [4] (CD8+ cells, Post Thaw, Bazedoxifene 0.01 nM) it was 108; in assay [4] (CD8+ cells, Post Thaw, Bazedoxifene 0.1 nM), 105. The “CD40L expression (MFI)” value is listed as 108 in assay [4] (CD8+ cells, Post Thaw, Bazedoxifene 1 nM); 114 in assay [4] (CD8+ cells, Post Thaw, Bazedoxifene 10 nM); 149 in assay [4] (CD8+ cells, Post Thaw, Bazedoxifene 100 nM); 178 in assay [4] (CD8+ cells, Post Thaw, Bazedoxifene 1000 nM); 263 in assay [4] (CD8+ cells, Post Thaw, Bazedoxifene 10000 nM); 269 in assay [4] (CD8+ cells, Restim, Bazedoxifene 0.1 nM). Also, the “CD40L expression (MFI)” value in assay [4] (CD8+ cells, Restim, Bazedoxifene 1 nM) came out at 274; in assay [4] (CD8+ cells, Restim, Bazedoxifene 10 nM), 265; in assay [4] (CD8+ cells, Restim, Bazedoxifene 100 nM) it was 326; in assay [4] (CD8+ cells, Restim, Bazedoxifene 1000 nM) it was 445; in assay [4] (CD8+ cells, Restim, Bazedoxifene 10000 nM), 372.

B4: OT-001669: CD40L construct with deletion of amino acids 1-13 of CD40L, designed to reduce internalization (protein)
chain: MHATGLPISMKIFMYLLTVFLITQMIGSALFAVYLHRRLDKIEDERNLHEDFVFMKTIQRCNTGERSLSLLNCEEIKSQFEGFVKDIMLNKEETKKENSFEMQKGDQNPQIAAHVISEASSKTTSVLQWAEKGYYTMSNNLVTLENGKQLTVKRQGLYYIYAQVTFCSNREASSQAPFIASLCLKSPGRFERILLRAANTHSSAKPCGQQSIHLGGVFELQPGASVFVNVTDPSQVSHGTGFTSFGLLKL
Take B4: the “CD40L levels in supernatant” value was 8444.30 in assay [5] (1.25 μg/ml hCD40-Fc), 4335.76 in assay [5] (1.25 μg/ml mCD40-Fc) and 2137.69 in assay [5] (Untreated). Moreover, the “shedding of CD40L” value in assay [5] (1.25 μg/ml recombinant human CD40-Fc) is given as “enhance the shedding”.
